B1: CPD: Arabidopsis CPD (AT5G05690), cytochrome P450 90A1 (protein, listed as Arabidopsis thaliana)
chain: MAFTAFLLLLSSIAAGFLLLLRRTRYRRMGLPPGSLGLPLIGETFQLIGAYKTENPEPFIDERVARYGSVFMTHLFGEPTIFSADPETNRFVLQNEGKLFECSYPASICNLLGKHSLLLMKGSLHKRMHSLTMSFANSSIIKDHLMLDIDRLVRFNLDSWSSRVLLMEEAKKITFELTVKQLMSFDPGEWSESLRKEYLLVIEGFFSLPLPLFSTTYRKAIQARRKVAEALTVVVMKRREEEEEGAERKKDMLAALLAADDGFSDEEIVDFLVALLVAGYETTSTIMTLAVKFLTETPLALAQLKEEHEKIRAMKSDSYSLEWSDYKSMPFTQCVVNETLRVANIIGGVFRRAMTDVEIKGYKIPKGWKVFSSFRAVHLDPNHFKDARTFNPWRWQSNSVTTGPSNVFTPFGGGPRLCPGYELARVALSVFLHRLVTGFSWVPAEQDKLVFFPTTRTQKRYPIFVKRRDFAT
B2: DWF4: Arabidopsis brassinosteroid biosynthetic enzyme DWF4 (AT3G50660) (protein, listed as Arabidopsis thaliana)
chain: MFETEHHTLLPLLLLPSLLSLLLFLILLKRRNRKTRFNLPPGKSGWPFLGETIGYLKPYTATTLGDFMQQHVSKYGKIYRSNLFGEPTIVSADAGLNRFILQNEGRLFECSYPRSIGGILGKWSMLVLVGDMHRDMRSISLNFLSHARLRTILLKDVERHTLFVLDSWQQNSIFSAQDEAKKFTFNLMAKHIMSMDPGEEETEQLKKEYVTFMKGVVSAPLNLPGTAYHKALQSRATILKFIERKMEERKLDIKEEDQEEEEVKTEDEAEMSKSDHVRKQRTDDDLLGWVLKHSNLSTEQILDLILSLLFAGHETSSVAIALAIFFLQACPKAVEELREEHLEIARAKKELGESELNWDDYKKMDFTQCVINETLRLGNVVRFLHRKALKDVRYKGYDIPSGWKVLPVISAVHLDNSRYDQPNLFNPWRWQQQNNGASSSGSGSFSTWGNNYMPFGGGPRLCAGSELAKLEMAVFIHHLVLKFNWELAEDDQPFAFPFVDFPNGLPIRVSRIL
B3: DWF5: Arabidopsis DWF5 (AT1G50430), sterol Δ7 reductase (protein, listed as Arabidopsis thaliana)
chain: MAETVHSPIVTYASMLSLLAFCPPFVILLWYTMVHQDGSVTQTFGFFWENGVQGLINIWPRPTLIAWKIIFCYGAFEAILQLLLPGKRVEGPISPAGNRPVYKANGLAAYFVTLATYLGLWWFGIFNPAIVYDHLGEIFSALIFGSFIFCVLLYIKGHVAPSSSDSGSCGNLIIDFYWGMELYPRIGKSFDIKVFTNCRFGMMSWAVLAVTYCIKQYEINGKVSDSMLVNTILMLVYVTKFFWWEAGYWNTMDIAHDRAGFYICWGCLVWVPSVYTSPGMYLVNHPVELGTQLAIYILVAGILCIYINYDCDRQRQEFRRTNGKCLVWGRAPSKIVASYTTTSGETKTSLLLTSGWWGLARHFHYVPEILSAFFWTVPALFDNFLAYFYVIFLTLLLFDRAKRDDDRCRSKYGKYWKLYCEKVKYRIIPGIY

Tested on: Ca^2+/CaM
Experiment: gel mobility shift assay of BR biosynthetic proteins
Assay type: binding, potato
Details: FIG. 5
Text: PCM1: potato calmodulin 1; PCM6: potato calmodulin 6. Sequences of respective CaMBD are also shown: N-DWF4 (SEQ ID NO:18); C-DWF4 (SEQ ID NO:19); CPD (SEQ ID NO:17); and DWF5 (SEQ ID NO:20).
DWF1Ca^2+ is an important second messenger and an integral part of the cellular signalling system in plants^5,29. Applicants were thus prompted to survey the CaM-binding properties of other proteins involved in brassinosteroid biosynthesis.

Ca^2+/CaM binding, Ca^2+/CaM-binding proteins:
B1
B2
B3

— US20070089183A1, “Size and/or growth engineering by modulation of the interaction between calmodulin, and brassinosteroid biosynthetic enzymes and orthologs therof” (Washington State University, priority 2005, published 2007)
